Changes are numbered by the printed parent chain.
B1: SARS-CoV-2 variant 1-31 (antibody, V domains shown)
VH: EVQLLESGGGLVQPGGSLRLSCAASGFTFSSYAMNWVRQAPGKGLEWVSAISGSGGSTFYADSVKGRFTISRDNSKNTLYLQMNSLRAEDTAVYYCTRPPYGDYGDYWGQGTLVTVSS
VL: QSALTQPASVSGSPGQSITISCTGTSSDVGKYNLVSWYQQHPGKAPKLMIYEGSQRPSGVSNRFSGSKSGNTASLTISGLQAEDEADYYCCSYAGSRTPVVFGGGTKLTVL
B2: SARS-CoV-2 variant 1-32 (antibody, V domains shown)
VH: B1 VH with N35Y
VL: QSALTQPASVSGSPGQSITISCTGTSSDVGGYNLVSWYQQHPGKAPKLMIYEGNKRPSGVSNRFSGSKSGNTASLTISGLQAEDEADYYCCSYAGSSTFPVVFGGGTKLTVL
B3: SARS-CoV-2 variant 1-28 (antibody, V domains shown)
VH: EVQLLESGGGLVQPGGSLRLSCAASGFTFSSYGMSWVRQAPGKGLEWVSAISGSGGGTYYADSVKGRFTISRDNSKNTLYLQMNSLRAEDTAVYYCASSSSWQFDYWGQGTLVTVSS
VL: B1 VL with D28G, K31S, R97S, P99H, V100Y
B4: SARS-CoV-2 variant 1-4 (antibody, V domains shown)
VH: EVQLLESGGGLVQPGGSLRLSCAASGFTFSSQAMSWVRQAPGKGLEWVSAISGSGGGTYYADSVKGRFTISRDNSKNTLYLQMNSLRAEDTAVYYCAKDRRFGEFDPWGQGTLVTVSS
VL: B1 VL with K31T, R97S, T98S, P99F
B5: SARS-CoV-2 variant 1-3 (antibody, V domains shown)
VH: B4 VH
VL: B1 VL with T25I, K31S, S54T, Q55K, R97S, T98S, P99F
B6: SARS-CoV-2 variant 1-30 (antibody, V domains shown)
VH: B1 VH with N35T
VL: B1 VL with S27R, K31S, S54T, Q55K
B7: SARS-CoV-2 variant 1-5 (antibody, V domains shown)
VH: B4 VH
VL: B1 VL with D28G, K31S, G53A, Q55K, R97Y, P99F, V100A

molecular target: COVID S1 RBD Fc fusion (Antigen 1) (SARS-CoV-2), P0DTC2; assay: phage ELISA; settings: remark: other sources report otherwise

Binder | specificity ELISA, fold over background (fold over background) | specificity ELISA, percent binding relative to Acro S1 [%]
B1 | 1.3 | 4.3
B2 | 1.5 | 13.1
B3 | 1.1 | 113
B4 | 1.4 | 138
B5 | 1.8 | 109
B6 | 1.7 | 9.8
B7 | 1.6 | 108
